Results: US20250376533A1 (FUTUREGEN BIOPHARMACEUTICAL BEIJING, published 2025)

Assays:
[1] = target: T1, rat PD-L1 antigen (ACROBiosystems) (rat, UniProt D4AE25 19-239); assay: ELISA, coated antigen
T1 construct: Bought antigen coated on ELISA plates; construct not described
Experimental: (§1) The binding ability of monoclonal antibody to human PD-L1, as well as the species specificity, was detected using an enzyme-linked immunosorbent assay (ELISA). The specific method is as follows: human PD-L1, cynomolgus PD-L1, rat PD-L1, and mouse PD-L1 antigens (all purchased from ACROBiosystems) were coated with 1 μg/mL carbonate buffer (pH=9.6) in an ELISA plate at 100 μL per well, followed by incubation at 4° C. overnight. The wells were washed 5 times with PBST. 300 μL/well of PBST containing 1% BSA was added to block the wells, and the plate was incubated at room temperature for 1 hour. The wells were washed 5 times with PBST. […] The wells were washed 5 times with PBST. […] The wells were washed 5 times with PBST. Colorimetric substrate TMB was added at 100 μL per well and allowed to develop color at room temperature for 10 minutes, followed by the addition of 1 M sulfuric acid to terminate the reaction. The OD_{450 nm} was read on a microplate reader to analyze the results, and the EC₅₀ was calculated using a 4-parameter fit binding curve.
(§2) These monoclonal antibodies are not able to bind to rat PD-L1 or mouse PD-L1.

[2] = target: T2, mouse PD-L1 antigen (ACROBiosystems) (mouse, UniProt Q9EP73 19-239); assay: ELISA, coated antigen
T2 construct: Bought antigen coated on ELISA plates; construct not described
Experimental: as §1, §2

[3] = target: T3, cynomolgus PD-L1 antigen (ACROBiosystems) (cynomolgus, UniProt G7PSE7 19-238); assay: ELISA, coated antigen
T3 construct: Bought antigen coated on ELISA plates; construct not described
Experimental: as §1, §2

[4] = target: T4, human PD-L1 antigen (ACROBiosystems) (human, UniProt Q9NZQ7 19-238); assay: ELISA, coated antigen
T4 construct: Bought antigen coated on ELISA plates
Experimental: as §1, §2

[5] = target: T4, human PD-L1 antigen (ACROBiosystems); assay: BLI (Gator), antibody captured on PA probe, human PD-L1 in solution
Experimental: The interaction between monoclonal antibodies and antigens was detected using Gator, a label-free biomolecular interaction analyzer based on the principle of biolayer interferometry (BLI). The specific method is as follows: monoclonal antibody was diluted to 50 nM and added to a probe plate using a PA probe, allowing the monoclonal antibody to be captured by the PA probe. Human PD-L1, an antigen serially diluted starting from 200 nM, was then added for interaction with the […] captured by the PA probe. The interaction was analyzed by detecting the signal change of the reflected interference spectrum on the surface of the probe, and the binding kinetic constants of the antibody were finally calculated.

T4 sequence (Q9NZQ7 19-238 limits assumed): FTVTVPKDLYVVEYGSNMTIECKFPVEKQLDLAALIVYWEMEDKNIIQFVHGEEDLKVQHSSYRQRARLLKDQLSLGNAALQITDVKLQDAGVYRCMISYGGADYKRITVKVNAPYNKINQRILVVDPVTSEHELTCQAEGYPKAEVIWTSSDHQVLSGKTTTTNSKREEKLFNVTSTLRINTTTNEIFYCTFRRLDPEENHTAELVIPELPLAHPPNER
T3 sequence (G7PSE7 entry or part of it): as the sequence (Q9NZQ7 19-238 limits assumed) above, with A33T, A34S, S62N, R68Q, Q82R, F173L, T185A, T192I, H215L counted along it
T2 sequence (Q9EP73 19-239 limits assumed): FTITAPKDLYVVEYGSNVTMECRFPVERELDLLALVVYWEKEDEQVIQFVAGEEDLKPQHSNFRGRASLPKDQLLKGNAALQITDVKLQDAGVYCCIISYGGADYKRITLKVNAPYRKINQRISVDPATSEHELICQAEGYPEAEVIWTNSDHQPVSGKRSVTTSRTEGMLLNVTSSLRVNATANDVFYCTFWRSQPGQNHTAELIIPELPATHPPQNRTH
T1 sequence (D4AE25 entry or part of it limits assumed): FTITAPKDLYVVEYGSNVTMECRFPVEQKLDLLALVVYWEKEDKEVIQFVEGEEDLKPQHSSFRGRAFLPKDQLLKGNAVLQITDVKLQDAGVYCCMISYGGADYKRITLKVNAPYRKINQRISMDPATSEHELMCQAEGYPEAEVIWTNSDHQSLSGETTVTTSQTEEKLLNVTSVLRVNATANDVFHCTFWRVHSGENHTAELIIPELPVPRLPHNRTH

binding result [1]: no binding
binding result [2]: no binding
EC50 [3]: 18 pM
EC50 [4]: 14 pM
Kd [5]: 4380 pM
koff [5]: 0.00293 s⁻¹
kon [5]: 670000 M⁻¹ s⁻¹
B1: anti-PD-L1 monoclonal antibody 1541 (antibody, human IgG1, V domains shown)
VH: EVQLVESGGGLVQPGGSLRLSCAASGFTFDYYTQCWFRQAPGKEREWVSCISSSEGSTYYADSVKGRFTISRDNSKNTVYLQMNSLKTEDTAVYYCAARKGGPLTIENFFDYWGQGTQVTVSS
